Assays:
[1] = target: hemagglutinin of A/Brisbane/10/2007 (H3N2), in the influenza virus antigen standard (Influenza A virus A/Brisbane/10/2007 …, UniProt A8W8K8, strain); experiment: ELISA; conditions: one partner purified
[2] = target: recombinant H1-HA (D18-I530), A/California/06/2009 (H1N1)pdm09 (Influenza A virus A/California/06/2009 …, UniProt C3W5S1, strain); experiment: SPR; conditions: both partners purified
[3] = target: recombinant H5-HA, A/Vietnam/1203/2004 (H5N1) (Influenza A virus A/Vietnam/1203/2004 …, UniProt Q5EP31, strain); experiment: SPR; conditions: both partners purified
[4] = target: T1, recombinant H2-HA, A/Japan/305/57 (H2N2) (Influenza A virus A/Japan/305/1957 …, UniProt P03451, strain); experiment: SPR; conditions: both partners purified
T1 construct: source: bought: E-Enzymes (Protein Sciences in the SPR methods)

[5] = target: recombinant H9-HA, A/HongKong/1073/99 (H9N2) (Influenza A virus A/Hong Kong/1073/99 …, UniProt Q9ICY5, strain); experiment: SPR; conditions: both partners purified
[6] = target: recombinant HA1 domain (D18-R344), A/California/06/2009 (H1N1)pdm09 (Influenza A virus A/California/06/2009 …, UniProt C3W5S1, strain); experiment: SPR; conditions: both partners purified
[7] = target: hemagglutinin of A/California/07/2009 (H1N1)pdm09, in the influenza virus antigen standard (Influenza A virus A/California/07/2009 …, UniProt C3W5X2, strain); experiment: ELISA; conditions: one partner purified
[8] = target: phage displayed HA gene fragment P66-I282 (Influenza A virus A/California/07/2009 …, UniProt C3W5X2); experiment: ELISA; conditions: both partners purified
[9] = target: phage displayed HA gene fragment L193-K225 (Influenza A virus A/California/07/2009 …, UniProt C3W5X2); experiment: ELISA; conditions: both partners purified
[10] = target: phage displayed HA gene fragment D363-G478 (Influenza A virus A/California/07/2009 …, UniProt C3W5X2); experiment: ELISA; conditions: both partners purified
[11] = target: T2, recombinant H3-HA, A/Brisbane/10/2007 (H3N2) (Influenza A virus A/Brisbane/10/2007 …, UniProt A8W8K8, strain); experiment: SPR; data not shown: sdAbs on immobilised recombinant H3-HA and H7-HA; conditions: both partners purified
T2 construct: source: bought: Protein Sciences

[12] = target: T3, recombinant H7-HA, A/Netherlands/219/2003 (H7N7) (Influenza A virus …, UniProt Q6VMK1); experiment: as above; conditions: both partners purified
T3 construct: source: bought: Protein Sciences

Binder	binding result [1]	Kd [2]	koff [2]	kon [2]	binding result [3]	binding result [4]	binding result [5]	Kd [6]	binding result [7]	binding result [8]	binding result [9]	binding result [10]	binding result [11]	binding result [12]
R1a-G5 (VHH, source: E. coli WK6 periplasm, purified (Talon IMAC, Superdex 75 SEC)) VHH: QLQLVESGGGLVQPGGSLRLSCAASGSISRIVTMGWYRQASGKERELVAVIGNYGNTNYADSVKGRFTVSRDNAKDTAYLQMNGLNVEDTAIYYCKTSTTTPPYEYWGQGTQVTVSS	no binding	5.85 nM	0.00504 s⁻¹	862000 M⁻¹ s⁻¹	no binding	no binding	no binding	15.6 nM	binds	binds	no binding	no binding	no binding	no binding
R1a-F4 (VHH, source: E. coli WK6 periplasm, purified (Talon IMAC, Superdex 75 SEC)) VHH: QVQLVESGGGLVQPGGSLRLSCAASGSISRIVTMGWYRQGPGKERELVAVIGNYGNTNYADSVKGRFTVSRDNAKDTAYLQMNNLNVEDTAMYYCKCSTTTPPHEFWGQGTQVTVSS	no binding	6.46 nM	0.0022 s⁻¹	340000 M⁻¹ s⁻¹	no binding	no binding	no binding	4.74 nM	binds	binds	no binding	no binding	no binding	no binding
R1a-C5 (VHH, source: E. coli WK6 periplasm, purified (Talon IMAC, Superdex 75 SEC)) VHH: QVQLVESGGGLVQPGGSLRLSCAASNDIFSFYTMGWYLQAIGKQREPVAVIGNGGNTNYAESVKGRFTISRDGAKNTAYLQMNSLKPEDTAVYYCMASGPGGLNVWGQGTQVTVSS	no binding	37.6 nM	0.0206 s⁻¹	548000 M⁻¹ s⁻¹				38.4 nM	binds	binds	binds		no binding	no binding
R1a-F5 (VHH, source: E. coli WK6 periplasm, purified (Talon IMAC, Superdex 75 SEC)) VHH: QLQLVESGGGLVQVGGSLRLSCAASGFPFDGYAIAWFRQAPGKEREGVSCRASDGNTYYAESLKGRLTMSTDNAKNTVYLQMNSLKPEDTAVYYCAAASWVASLWSPSEYDYWGQGTQVTVSS	no binding	10 nM	0.000414 s⁻¹	40200 M⁻¹ s⁻¹	no binding	no binding	no binding	6.06 nM	binds	binds	no binding	no binding	no binding	no binding
R1a-E6 (VHH, source: E. coli WK6 periplasm, purified (Talon IMAC, Superdex 75 SEC)) VHH: QVQLVESGGGLVQPGGSLRLSCAASGFTLGAYAIAWFRQAPGKEREGVSCISPSDSFTEYGDSVKGRFTVSRDNAKNTVYLQMNSLQPEDTAVYYCAADPVCTAGWYRPSRFDLWGQGTQVTVSS	no binding	9.97 nM	0.000151 s⁻¹	15100 M⁻¹ s⁻¹	no binding	no binding	no binding	36 nM	binds	binds	no binding	no binding	no binding	no binding
R1a-G6 (VHH, source: E. coli WK6 periplasm, purified (Talon IMAC, Superdex 75 SEC)) VHH: QVQLVESGGGLVQSGGSLRLSCAASGSMSRIITMGWYRQAPGMERELVAVIGNNDNTVYGDSVQGRFTVSRDNAKNTAYLQMNSLNAEDTAMYYCKISTLTPPHEYWGQGTQVTVSS	no binding	4.83 nM	0.000355 s⁻¹	73800 M⁻¹ s⁻¹	no binding	no binding	no binding	4.62 nM	binds	binds	no binding	no binding	no binding	no binding
R2a-F9 (VHH, source: E. coli WK6 periplasm, purified (Talon IMAC, Superdex 75 SEC)) VHH: QVQLVESGGGLVQPGGSLRLSCSASGSISSIVTMGWYRQAPGKERELVAVIGNYGNTNYADSVKGRFTVSRDNAKNTVYLQMNSLNVEDTAMYVCKFSSTVAPHEYWGQGTQVTVSS	no binding	78.8 nM	0.065 s⁻¹	825000 M⁻¹ s⁻¹	no binding	no binding	no binding	78.8 nM	binds	binds	no binding	no binding	no binding	no binding
R2a-G9 (VHH, source: E. coli WK6 periplasm, purified (Talon IMAC, Superdex 75 SEC)) VHH: QVQLVESGGGLVQPGGSLRLSCAASDNIFSFYTMGWYRQSPGKERELVAVIGNGGNTNYADSVKGRFTISRDNGKNKAHLQMNSLKPEDTAVYYCKASGPGGVEVWGQGTQVTVSS	no binding	22.1 nM	0.00392 s⁻¹	177000 M⁻¹ s⁻¹	no binding	no binding	no binding	68.7 nM	binds	binds	no binding		no binding	no binding
R2a-H9 (VHH, source: E. coli WK6 periplasm, purified (Talon IMAC, Superdex 75 SEC)) VHH: QVQLVESGGGLVQPGGSLRLSCAASTNIASFYTMGWYRQTPGQQRDVVAVIGNGGNTNYADSVKGRFTISRDGAKNTAHLQMNSLKPEDTDVYYCKASGPGGVILWGQGTQVTVSS	no binding	2.77 nM	0.000384 s⁻¹	139000 M⁻¹ s⁻¹	no binding	no binding	no binding	468 nM	binds	binds	no binding		no binding	no binding
R1a-E5 (VHH, source: E. coli WK6 periplasm, purified (Talon IMAC, Superdex 75 SEC)) VHH: QLQLVESGGGLVQPGGSLRLSCTASGFSLDNYAIGWFRRAPGEEREGVSFITSTSAVTKYADSVKGRFTISRDNAKNTVYLQMTSLKPEDTAVYYCAGTRWVPTMKADEYNYWGQGTQVTVSS	no binding	0.79 nM	7.61e-05 s⁻¹	97600 M⁻¹ s⁻¹	no binding	no binding	no binding		binds	no binding	no binding	no binding	no binding	no binding
R2a-E8 (VHH, source: E. coli WK6 periplasm, purified (Talon IMAC, Superdex 75 SEC)) VHH: QLQLVESGGGLVQPGGSLRLSCTASGDIFVMYMIDWYRQAPGKQRELVASIDGRGTPMYADSVKGRFTISRDNAKNTVYLQMNSLKPEDTAVYSCHAKSPLVDNEYWGQGTQVTVSS	no binding	0.79 nM	0.000148 s⁻¹	187000 M⁻¹ s⁻¹	no binding	no binding	no binding		binds	no binding	no binding	no binding	no binding	no binding
R2a-B9 (VHH, source: E. coli WK6 periplasm, purified (Talon IMAC, Superdex 75 SEC)) VHH: QVQLVESGGGLVQPGGSLRLSCAASGSAFSINAMGWYRQAPGEEREFVAAITAGGNTYYADSAKARFTISRDNAKNMLYLQMNSLKPEDTAMYYCAATKAFGIATITADYELWGQGTQVTVSS	no binding	0.16 nM	4.94e-05 s⁻¹	312000 M⁻¹ s⁻¹	no binding	no binding	no binding		binds	no binding	no binding	no binding	no binding	no binding

Source: article PMC4118869 (PLoS ONE, 2014)
